Test results published in patent US8026218 (UNIVERSITY OF ARIZONA, dated 2011).
Like-named read-outs stand apart in the source and are kept apart here. Bridge positions count the residues as written; N and C are the ends. Square brackets hold non-standard residues; d marks the D form. Ends that are not written are not given here. * marks the point of attachment. O‑Bzl(CF3)2 = C-terminal bis(trifluoromethyl)benzyl ester; NH(3,5-(CF3)2-benzyl) = FC(F)(F)c1cc(CN*)cc(C(F)(F)F)c1; OBzl(3,5-(CF3)2) = FC(F)(F)c1cc(CO*)cc(C(F)(F)F)c1; Phe(4-Cl) = N[C@@H](Cc1ccc(Cl)cc1)C(=O)O; Phe(4-F) = N[C@@H](Cc1ccc(F)cc1)C(=O)O; Nle = CCCC[C@H](N)C(=O)O

Assays:
human NK1 receptor [1] = target: T1, human NK1 receptor (human, UniProt P25103 1-407); test: competition vs [3H]Substance P, hNK1 CHO cell membranes
T1 construct: whole, on cells; membrane preparations of the transfected cells were used; also called hNK1; human neurokinin-1 receptor

[2] = target: T2, µ opioid receptor of the guinea pig isolated ileum (guinea pig, UniProt P97266 1-98); test: cell-based or functional assay
T2 sequence (P97266 whole entry): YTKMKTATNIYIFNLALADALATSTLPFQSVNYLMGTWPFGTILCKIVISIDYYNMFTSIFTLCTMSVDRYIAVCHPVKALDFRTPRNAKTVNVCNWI

human δ opioid receptor [3] = target: T3, human δ opioid receptor (human, UniProt P41143 1-372); test: cell-based or functional assay
T3 sequence (P41143 whole entry, stated change not applied): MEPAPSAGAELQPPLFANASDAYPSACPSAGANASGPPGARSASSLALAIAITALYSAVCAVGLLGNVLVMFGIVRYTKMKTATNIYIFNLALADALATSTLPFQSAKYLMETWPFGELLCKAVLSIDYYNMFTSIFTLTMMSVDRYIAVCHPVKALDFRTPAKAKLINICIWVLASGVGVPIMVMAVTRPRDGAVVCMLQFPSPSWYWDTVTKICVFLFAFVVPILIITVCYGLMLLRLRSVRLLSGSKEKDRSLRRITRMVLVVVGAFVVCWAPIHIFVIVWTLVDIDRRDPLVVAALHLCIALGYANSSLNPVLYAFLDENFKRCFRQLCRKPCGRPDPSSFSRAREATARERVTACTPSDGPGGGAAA

rat NK1 receptor [4] = target: T4, rat NK1 receptor (rat, UniProt P14600 1-407); test: competition vs [3H]substance P, membranes of rNK1-transfected CHO cells
T4 construct: whole, on cells; Assayed as membrane preparations of transfected CHO cells; also called rNK1; rNK-1
T4 sequence (P14600 whole entry): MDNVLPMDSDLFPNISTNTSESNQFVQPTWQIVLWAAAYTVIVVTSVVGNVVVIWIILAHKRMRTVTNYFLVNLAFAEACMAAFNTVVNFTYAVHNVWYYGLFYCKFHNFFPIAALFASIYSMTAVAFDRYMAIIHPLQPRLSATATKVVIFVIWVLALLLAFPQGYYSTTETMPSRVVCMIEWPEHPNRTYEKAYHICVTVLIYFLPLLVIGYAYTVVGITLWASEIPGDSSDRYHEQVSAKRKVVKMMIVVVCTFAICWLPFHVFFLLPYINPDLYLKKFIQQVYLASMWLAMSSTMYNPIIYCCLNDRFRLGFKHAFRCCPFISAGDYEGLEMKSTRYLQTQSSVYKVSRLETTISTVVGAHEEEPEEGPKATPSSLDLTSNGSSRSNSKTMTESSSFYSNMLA

human δ opioid receptor [5] = target: T3, human δ opioid receptor; test: competition vs [3H]DPDPE, membranes of hDOR-transfected HN9.10 cells
rat µ opioid receptor [6] = target: T5, rat µ opioid receptor (rat, UniProt P33535 1-398); test: competition vs [3H]DAMGO, rMOR cell membranes
T5 construct: whole, on cells; membrane preparations of the transfected cells were used; also called rMOR; MOR

rat NK1 receptor [7] = target: T6, rat NK1 receptor (rat, UniProt P14600 1-407); test: competition vs [3H]Substance P, rNK1 CHO cell membranes
T6 construct: whole, on cells; membrane preparations of the transfected cells were used; also called rNK1; rNK-1
T6 sequence (P14600 whole entry): as above

rat µ opioid receptor [8] = target: T5, rat µ opioid receptor; test: cell-based or functional assay
human δ opioid receptor [9] = target: T7, human δ opioid receptor (human, UniProt P41143 1-372); test: cell-based or functional assay; remark: listed apart in the source
T7 sequence (P41143 whole entry, stated change not applied): as the sequence (P41143 whole entry, stated change not applied) above

guinea pig NK1 receptor [10] = target: T8, guinea pig NK1 receptor (guinea pig, UniProt P30547 1-407); test: cell-based or functional assay
[11] = target: T9, µ opioid receptor of the guinea pig isolated ileum (guinea pig, UniProt P97266 1-98); test: cell-based or functional assay; remark: listed apart in the source
T9 sequence (P97266 whole entry): as the sequence (P97266 whole entry) above

human δ opioid receptor [12] = target: T7, human δ opioid receptor; test: competition vs [3H]DPDPE, hDOR cell membranes
[13] = target: T2, µ opioid receptor of the guinea pig …; test: cell-based or functional assay; remark: listed apart in the source
human NK1 receptor [14] = target: T1, human NK1 receptor; test: competition vs [3H]Substance P, hNK1 CHO cell membranes; remark: listed apart in the source
rat NK1 receptor [15] = target: T6, rat NK1 receptor; test: competition vs [3H]Substance P, rNK1 CHO cell membranes; remark: listed apart in the source
[16] = target: T9, µ opioid receptor of the guinea pig …; test: cell-based or functional assay; remark: listed apart in the source
[17] = target: T9, µ opioid receptor of the guinea pig …; test: cell-based or functional assay; remark: listed apart in the source
rat NK1 receptor [18] = target: T6, rat NK1 receptor; test: competition vs [3H]Substance P, rNK1 CHO cell membranes; remark: listed apart in the source
rat µ opioid receptor [19] = target: T5, rat µ opioid receptor; test: competition vs [3H]DAMGO, rMOR cell membranes; remark: listed apart in the source
guinea pig NK1 receptor [20] = target: T8, guinea pig NK1 receptor; test: cell-based or functional assay; remark: listed apart in the source
[21] = target: T9, µ opioid receptor of the guinea pig …; test: cell-based or functional assay; remark: listed apart in the source
rat µ opioid receptor [22] = target: T5, rat µ opioid receptor; test: cell-based or functional assay; remark: listed apart in the source
human δ opioid receptor [23] = target: T7, human δ opioid receptor; test: cell-based or functional assay; remark: listed apart in the source
human δ opioid receptor [24] = target: T7, human δ opioid receptor; test: competition vs [3H]DPDPE, hDOR cell membranes; remark: listed apart in the source

T8 sequence (P30547 whole entry): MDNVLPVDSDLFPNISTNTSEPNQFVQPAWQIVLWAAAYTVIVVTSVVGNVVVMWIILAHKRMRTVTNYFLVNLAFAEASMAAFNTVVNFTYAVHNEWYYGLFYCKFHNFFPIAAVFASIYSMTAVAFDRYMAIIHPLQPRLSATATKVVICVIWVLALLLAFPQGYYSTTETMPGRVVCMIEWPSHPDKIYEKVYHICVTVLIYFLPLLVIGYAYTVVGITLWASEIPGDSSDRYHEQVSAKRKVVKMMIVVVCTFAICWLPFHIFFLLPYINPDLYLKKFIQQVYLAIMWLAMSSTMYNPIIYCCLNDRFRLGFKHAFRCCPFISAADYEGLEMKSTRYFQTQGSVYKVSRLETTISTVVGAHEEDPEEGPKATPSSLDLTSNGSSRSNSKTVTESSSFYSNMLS
T5 sequence (P33535 whole entry): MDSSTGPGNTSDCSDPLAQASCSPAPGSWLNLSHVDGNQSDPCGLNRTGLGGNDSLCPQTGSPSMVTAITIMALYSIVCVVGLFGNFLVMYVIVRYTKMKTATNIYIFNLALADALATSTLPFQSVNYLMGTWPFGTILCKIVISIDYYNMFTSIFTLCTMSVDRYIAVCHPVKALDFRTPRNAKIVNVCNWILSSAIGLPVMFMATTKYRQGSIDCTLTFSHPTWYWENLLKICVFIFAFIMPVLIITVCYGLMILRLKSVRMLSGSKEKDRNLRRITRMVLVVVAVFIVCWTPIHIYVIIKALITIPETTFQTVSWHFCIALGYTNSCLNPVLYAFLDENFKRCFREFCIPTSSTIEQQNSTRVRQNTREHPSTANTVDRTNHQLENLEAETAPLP
T1 sequence (P25103 whole entry): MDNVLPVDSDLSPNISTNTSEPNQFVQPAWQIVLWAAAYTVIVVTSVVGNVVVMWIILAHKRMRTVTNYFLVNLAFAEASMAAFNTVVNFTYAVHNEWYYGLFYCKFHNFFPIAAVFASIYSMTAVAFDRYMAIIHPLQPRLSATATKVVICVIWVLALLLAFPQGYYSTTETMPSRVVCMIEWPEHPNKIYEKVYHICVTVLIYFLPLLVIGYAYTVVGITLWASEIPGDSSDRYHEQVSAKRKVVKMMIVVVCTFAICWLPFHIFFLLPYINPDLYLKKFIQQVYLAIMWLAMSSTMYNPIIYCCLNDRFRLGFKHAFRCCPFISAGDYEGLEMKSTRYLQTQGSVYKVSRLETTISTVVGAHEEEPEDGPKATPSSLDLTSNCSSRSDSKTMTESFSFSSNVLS

Y[dA]G[Phe(4-Cl)]-{OBzl(3,5-(CF3)2)} (also called NP52) [Tyr-D-Ala-Gly-pClPhe-O-3′,5′(CF3)2-Bzl] gave a Ki (human NK1 receptor [1]) of 8.04 nM.

For Y[dA]GFLW-{O‑Bzl(CF3)2} [Tyr-DAla-Gly-Phe-Leu-Trp-O-Bzl(CF3)2 (NP37)], the “GPI/LMMP µ-agonist IC50” value [2] was 45.4 nM.

For H-Y[dA]GFMPLW-{NH(3,5-(CF3)2-benzyl)} (also: TFA salt, TFA salt; also called TY027; TY27) [H-Tyr-D-Ala-Gly-Phe-Met-Pro-Leu-Trp-NH-3,5-Bzl(CF3)2], the “[35S]GTPγS binding EC50” value (human δ opioid receptor [3]) was 8.6 nM, the “[35S]GTPγS binding Emax” value (human δ opioid receptor [3]) was 58% and the “[35S]GTPγS binding LogEC50” value (human δ opioid receptor [3]) was -8.1. It also gave a Ki (rat NK1 receptor [4]) of 7.3 nM, a LogIC50 (rat NK1 receptor [4]) of -7.6 and a LogIC50 (human δ opioid receptor [5]) of -8.8.

B1: Tyr[DCysGlyPheDCys]ProLeuTrpNHBn(CF3)2 (peptide)
peptide: Y[dC]GF[dC]PLW-{NH(3,5-(CF3)2-benzyl)}
modifications: disulfide 2-5
notes: cyclic; also called TY037; [D-Cys2, D-Cys5]TY027
B1 was tested, and the Ki (rat µ opioid receptor [6]) was 52 nM, the LogIC50 (rat µ opioid receptor [6]) was -6.9 and the LogIC50 (rat NK1 receptor [7]) was -6.9. For the same binder, the “[35S]GTPγS binding EC50” value (rat µ opioid receptor [8]) was 53 nM, the “[35S]GTPγS binding Emax” value (rat µ opioid receptor [8]) was 12% and the “[35S]GTPγS binding LogEC50” value (rat µ opioid receptor [8]) was -7.3. For the same binder, the “[35S]GTPγS binding EC50” value (human δ opioid receptor [9]) was 14 nM, the “[35S]GTPγS binding Emax” value (human δ opioid receptor [9]) was 22% and the “[35S]GTPγS binding LogEC50” value (human δ opioid receptor [9]) was -7.9. For the same binder, the “GPI Substance P antagonist Ke” value (guinea pig NK1 receptor [10]) was 4.7 nM, the “GPI (µ) IC50” value [11] was 280 nM and the Ki (human δ opioid receptor [12]) was 7.8 nM. For the same binder, the LogIC50 (human δ opioid receptor [12]) was -7.8.

Y[dA]GFW-{OBzl(3,5-(CF3)2)} [Tyr-D-Ala-Gly-Phe-Trp-O-3′,5′(CF3)2-Bzl (NP36)] was tested, and the “GPI µ-agonist IC50” value [13] was 523 nM.

For Y[dA]GFMW-{O‑Bzl(CF3)2} [Tyr-DAla-Gly-Phe-Met-Trp-O-Bzl(CF3)2 (NP38)], the “GPI/LMMP µ-agonist IC50” value [2] was 393 nM.

B2: Tyr[DCysGlyPheNleProCys]TrpNHBn(CF3)2 (peptide)
peptide: Y[dC]GF[Nle]PCW-{NH(3,5-(CF3)2-benzyl)}
modifications: disulfide 2-7
notes: cyclic; also called TY035; [D-Cys2, Cys7]TY027
B2 was tested, and the Ki (rat µ opioid receptor [6]) was 79 nM, the LogIC50 (rat µ opioid receptor [6]) was -6.8 and the Ki (human NK1 receptor [14]) was 0.1 nM. For the same binder, the LogIC50 (human NK1 receptor [14]) was -9.7, the LogIC50 (rat NK1 receptor [7]) was -7 and the “[35S]GTPγS binding EC50” value (human δ opioid receptor [9]) was 0.02 nM. The “[35S]GTPγS binding Emax” value (human δ opioid receptor [9]) was 11%, the “[35S]GTPγS binding LogEC50” value (human δ opioid receptor [9]) was -10.8 and the “GPI Substance P antagonist Ke” value (guinea pig NK1 receptor [10]) was 2.2 nM. For the same binder, the “GPI (µ) IC50” value [11] was 1000 nM, the Ki (human δ opioid receptor [12]) was 1.3 nM and the LogIC50 (human δ opioid receptor [12]) was -8.6.

Work on Y[dA]GFW-{OBzl(3,5-(CF3)2)} (also called NP36) [Tyr-D-Ala-Gly-Phe-Trp-O-3′,5′(CF3)2-Bzl] yielded a Ki (human NK1 receptor [1]) of 0.0005 nM.

In the case of Y[dA]GFMPLW-{NH(3,5-(CF3)2-benzyl)} (also called TY027) [TyrDAlaGlyPheMetProLeuTrpNHBn(CF3)2], the Ki (rat NK1 receptor [15]) is reported as 7.27 nM, the “GPI (µ) IC50” value [16] is reported as 490 nM and the “GPI/LMMP IC50” value [17] is reported as 488 nM. For the same binder, the Ki (rat NK1 receptor [7]) was 7.3 nM, the LogIC50 (rat NK1 receptor [7]) was -7.6 and the “[35S]GTPγS binding EC50” value (human δ opioid receptor [9]) was 8.6 nM. The “[35S]GTPγS binding Emax” value (human δ opioid receptor [9]) was 58%, the “[35S]GTPγS binding LogEC50” value (human δ opioid receptor [9]) was -8.1 and the “GPI (µ) IC50” value [11] was 490 nM. For the same binder, the LogIC50 (human δ opioid receptor [12]) was -8.8.

In the case of Y[dA]GFLPLW-{OBzl(3,5-(CF3)2)} (also called TY004) [TyrDAlaGlyPheLeuProLeuTrpOBn(CF3)2], the IC50 (rat NK1 receptor [18]) is reported as 20.9 nM, the Ki (rat µ opioid receptor [19]) is reported as 23.3 nM and the “GPI/LMMP SP antagonist Ke” value (guinea pig NK1 receptor [20]) is reported as 19.4 nM. The “GPI/LMMP IC50” value [21] was 341 nM, the “GTP binding Emax” value (rat µ opioid receptor [22]) was 44.5% and the “GTP binding EC50” value (human δ opioid receptor [23]) was 9.6 nM. The “GTP binding Emax” value (human δ opioid receptor [23]) was 42.5% and the Ki (human δ opioid receptor [24]) was 5 nM.

In the case of Y[dA]GFGPLW-{OBzl(3,5-(CF3)2)} (also: TFA salt, also called TY006) [TyrDAlaGlyPheGlyProLeuTrpOBn(CF3)2], the IC50 (rat NK1 receptor [18]) is reported as 15.6 nM, the Ki (rat µ opioid receptor [19]) is reported as 27 nM and the “GPI/LMMP SP antagonist Ke” value (guinea pig NK1 receptor [20]) is reported as 5.4 nM. For the same binder, the “GPI/LMMP IC50” value [21] was 384 nM, the “GTP binding EC50” value (rat µ opioid receptor [22]) was 41.7 nM and the “GTP binding Emax” value (rat µ opioid receptor [22]) was 35.9%. The “GTP binding EC50” value (human δ opioid receptor [23]) was 50.2 nM, the “GTP binding Emax” value (human δ opioid receptor [23]) was 33.6% and the Ki (human δ opioid receptor [24]) was 36.1 nM.

Y[dA]GFFPLW-{OBzl(3,5-(CF3)2)} (also called TY003) [TyrDAlaGlyPhePheProLeuTrpOBn(CF3)2] was tested, and the IC50 (rat NK1 receptor [18]) was 19.3 nM, the Ki (rat µ opioid receptor [19]) was 28.3 nM and the “GPI/LMMP SP antagonist Ke” value (guinea pig NK1 receptor [20]) was 14.4 nM. The “GPI/LMMP, inhibition at 1 mM” value [21] was 7%, the “GTP binding EC50” value (rat µ opioid receptor [22]) was 58.7 nM and the “GTP binding Emax” value (rat µ opioid receptor [22]) was 36.3%. The “GTP binding EC50” value (human δ opioid receptor [23]) was 20.8 nM, the “GTP binding Emax” value (human δ opioid receptor [23]) was 39% and the Ki (human δ opioid receptor [24]) was 14.6 nM.

For Y[dA]GF[dF]PLW-{OBzl(3,5-(CF3)2)} (also called TY007) [TyrDAlaGlyPheDPheProLeuTrpOBn(CF3)2], the IC50 (rat NK1 receptor [18]) was 66.7 nM, the Ki (rat µ opioid receptor [19]) was 410 nM and the “GPI/LMMP SP antagonist Ke” value (guinea pig NK1 receptor [20]) was 69.6 nM. For the same binder, the “GPI/LMMP, inhibition at 1 mM” value [21] was 9%, the “GTP binding EC50” value (rat µ opioid receptor [22]) was 345 nM and the “GTP binding Emax” value (rat µ opioid receptor [22]) was 23.6%. The “GTP binding EC50” value (human δ opioid receptor [23]) was 16.7 nM, the “GTP binding Emax” value (human δ opioid receptor [23]) was 22.9% and the Ki (human δ opioid receptor [24]) was 110 nM.

With Y[dA]G[Phe(4-F)]-{OBzl(3,5-(CF3)2)} [Tyr-D-Ala-Gly-pFPhe-O-3′,5′(CF3)2-Bzl (NP62)] the “GPI µ-agonist IC50” value [13] was 208 nM.

In the case of Y[dA]G[Phe(4-F)]-{O‑3,5‑Bzl(CF3)2} (also called NP62) [Tyr-D-Ala-Gly-pFPhe-O-3′,5′(CF3)2-Bzl], the Ki (human NK1 receptor [1]) is reported as 0.2 nM.

For Y[dA]GFPW-{O‑Bzl(CF3)2} [Tyr-DAla-Gly-Phe-Pro-Trp-O-Bzl(CF3)2 (NP39)], the “GPI/LMMP µ-agonist IC50” value [2] was 259 nM.

With Y[dA]GW-{OBzl(3,5-(CF3)2)} [Tyr-D-Ala-Gly-Trp-O-3′,5′(CF3)2-Bzl (NP44)] the “GPI µ-agonist IC50” value [13] was 844 nM.
